For test [1], the system named is cancer cell lines COV413.AAD.A4, DM331.AAD.A4, SLM2.AAD.A1, MCF7.AAD.A2, MDAMB231.AAD; JY EBV-BLCL control. Description: Recognition of naturally processed and presented phosphopeptides on cancer cells by phosphopeptide-specific CTL (murine IFNγ release). Type of test: cell-based. The settings on record: FIG. 1A/1B; for recognition of the phosphopeptide on control cell line by phosphopeptide-specific CTL (murine IFNγ): JY EBV-BLCL control cell line; for recognition of the phosphopeptide on cancer cell lines by phosphopeptide-specific CTL (murine IFNγ): ovarian carcinoma, melanoma and breast carcinoma cell lines. The procedure:
FIGS. 1A and 1B are a graphic illustration of the recognition of naturally processed and presented phosphorylated peptides on cancer cells by the phosphopeptide-specific CTL. Phosphopeptide-specific CTL were incubated with the following cancer cell lines or EBV-transformed B lymphoblastoid cell lines (BLCL): COV413.AAD.A4 ovarian carcinoma, DM331.AAD.A4 and SLM2.AAD.A1 melanomas, MCF7.AAD.A2 and MDAMB231.AAD breast carcinomas, and JY EBV-BLCL. Supernatants were harvested and evaluated for the presence of murine IFNγ (produced by murine CTL lines). […] The designation “pS” denotes a phosphoserine residue. The ordinate indicates murine IFNγ in pg/ml. The abscissa indicates each cell line.

For another test, the target named is HLA A*0301 (Homo sapiens, UniProt P04439). Description: Binding / presentation of IRS-2 phosphopeptides by HLA A*0301. From the text: (§1) We have also shown that we can clone the T-cell receptor on the murine cytotoxic T-cells and then inject the corresponding DNA into normal human T-cells. This process turns them into cytotoxic T-cells that now recognize cancer cells that express the same class I phosphopeptides derived from IRS-2 and β-catenin. […] These experiments also open the door for using class I phosphopeptides in adopted T-cell therapy of cancer. This approach has shown dramatic success in the treatment of advanced stage metastatic melanoma. […] RVApSPTSGV (SEQ ID NO: 1289) binds to HLA A*0201 and both RVApSPTSGVK (SEQ ID NO: 53) and RVApSPTSGVKR (SEQ ID NO: 54) bind to HLA A*0301.

The next test addresses HLA A*0201 (Homo sapiens, UniProt P04439, D140Y/D185E/D98H/E176V/E277Q/G131W/G231S/I119V/I121R/I166T/I218V/L300P/L318F/N151K/N90K/P208A/P217A/Q86G/Q94H/R138H/R169H/T345S). Description: Binding of IRS-2 phosphopeptides to HLA A*0201.
Text: as §1

Square brackets hold non-standard residues; d marks the D form. Ends that are not written are not given here. pS = N[C@@H](COP(=O)(O)O)C(=O)O

The text below walks through data of patent US20180066017A1, “CLASS I MHC PHOSPHOPEPTIDES FOR CANCER IMMUNOTHERAPY AND DIAGNOSIS” (Agenus Inc., priority 2010, published 2018).

Regarding “GLLGpSPVRA (GLLG[pS]PVRA) [phosphopeptide with phosphoserine residue recognized by CTL lines 6850 and 6960]”, in test [1], the “recognition of the phosphopeptide on control cell line by phosphopeptide-specific CTL (murine IFNγ)” value is “not the control cell line” and the “recognition of the phosphopeptide on cancer cell lines by phosphopeptide-specific CTL (murine IFNγ)” value is reported as “recognize the phosphopeptide on all the cancer cell lines”.
As for RVApSPTSGV (RVA[pS]PTSGV), the “presentation by the A*0301 molecule” value with HLA A*0301 is reported as “cannot be presented”. In addition, in the test with HLA A*0201, the “binding to HLA A*0201” value is “binds”. In addition, in test [1], the “recognition of the phosphopeptide on control cell line by phosphopeptide-specific CTL (murine IFNγ)” value is given as “not the control cell line” and the “recognition of the phosphopeptide on cancer cell lines by phosphopeptide-specific CTL (murine IFNγ)” value is “recognize the phosphopeptide on all the cancer cell lines”.
Regarding RVApSPTSGVK (RVA[pS]PTSGVK), in the test with HLA A*0301, the “binding to HLA A*0301” value is reported as “bind”. In addition, the “binding to HLA A*0201” value with HLA A*0201 is on record as “Neither of the A*0301 peptides bind”.
For the substance RVApSPTSGVKR (RVA[pS]PTSGVKR), the “binding to HLA A*0301” value in the test with HLA A*0301 is reported as “bind”. Further, the “binding to HLA A*0201” value with HLA A*0201 was “Neither of the A*0301 peptides bind”.
